Source: paper PMC4526114, “Structure and vascular function of MEKK3–cerebral cavernous malformations 2 complex” (Nature Communications, 2015)
Blank lines part the entries; values can stand above or below the binder they belong to.

Assays:
Details in all cases: both partners purified
MEKK3^NPB1 [1] = target: T1, MEKK3^NPB1 (human, UniProt Q99759 1-124); experiment: ITC; CCM2^HHD injected into MEKK3^NPB1 in 20 2.5-μl injections at 25 °C; 150 mM NaCl, 50 mM HEPES pH 7.5; nano-ITC; 'observed Kd'
T1 construct: MEKK3 (MAP3K3), human, residues 1–124 (N-terminal helix and PB1 domain); also called N terminus of MEKK3; 6 × His–MEKK3^NPB1 (before cleavage); not shown: His6, N-terminal, cleaved
T1 sequence: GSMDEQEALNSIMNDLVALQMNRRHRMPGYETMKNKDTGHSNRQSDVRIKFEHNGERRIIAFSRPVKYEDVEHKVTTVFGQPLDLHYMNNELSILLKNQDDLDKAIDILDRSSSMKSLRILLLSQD

MEKK3^NPB1 [2] = target: T1, MEKK3^NPB1; experiment: SEC-MALS; CCM2^HHD:MEKK3^NPB1 complex used for crystallization, 100 μl of 1.5 mg ml^-1 in 150 mM NaCl, 20 mM Tris pH 8.0, 0.02% sodium azide
CCM2^FL = target: T2, CCM2^FL (human, UniProt Q9BSQ5 1-438); experiment: pull-down; GST fusions of MEKK3 immobilised on glutathione Sepharose-4B beads; 5 μl bead slurry and 60 μg purified CCM2 in 500 μl, 4 °C, 2 h; 150 mM NaCl, 50 mM Tris pH 7.5, 0.1% Triton-X100; Coomassie-stained SDS–PAGE of washed beads
T2 construct: CCM2, human, residues 1–438; also called full-length CCM2; CCM2^FL: 1–438; source: purified; not shown: His tag, N-terminal, cleaved
T2 sequence (Q9BSQ5 other isoform, or with tags, fused parts or gaps): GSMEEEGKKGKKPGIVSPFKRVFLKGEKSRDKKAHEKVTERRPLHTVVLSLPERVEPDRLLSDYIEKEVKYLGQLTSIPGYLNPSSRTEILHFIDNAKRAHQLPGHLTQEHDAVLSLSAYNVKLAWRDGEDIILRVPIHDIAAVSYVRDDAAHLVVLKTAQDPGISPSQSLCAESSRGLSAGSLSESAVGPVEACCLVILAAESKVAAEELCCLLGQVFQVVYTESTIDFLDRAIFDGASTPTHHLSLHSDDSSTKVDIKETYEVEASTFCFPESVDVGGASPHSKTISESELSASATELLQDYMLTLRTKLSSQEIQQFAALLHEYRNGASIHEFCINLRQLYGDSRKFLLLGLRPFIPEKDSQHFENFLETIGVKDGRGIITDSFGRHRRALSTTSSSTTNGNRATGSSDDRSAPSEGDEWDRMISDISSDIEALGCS

Kd (MEKK3^NPB1 [1]): 1400 ± 400 nM
stoichiometry N (MEKK3^NPB1 [2]): 1
B1: CCM2^HHD (domain or fragment, human)
chain: GSSKTISESELSASATELLQDYMLTLRTKLSSQEIQQFAALLHEYRNGASIHEFCINLRQLYGDSRKFLLLGLRPFIPEKDSQHFENFLETIGVKDGRG
notes: CCM2, human, residues 283–379 (harmonin homology domain); also called CCM2 harmonin homology domain; CCM2^HHD: 283–379; source: E. coli Rosetta (DE3), purified (HisTrap, TEV cleavage, size exclusion); not shown: His6, N-terminal, cleaved

binding result (CCM2^FL): binds
B2: GST–MEKK3^NPB1 (domain or fragment, human, UniProt Q99759 1-124, looked up)
chain: MDEQEALNSIMNDLVALQMNRRHRMPGYETMKNKDTGHSNRQSDVRIKFEHNGERRIIAFSRPVKYEDVEHKVTTVFGQPLDLHYMNNELSILLKNQDDLDKAIDILDRSSSMKSLRILLLSQD
notes: MEKK3 (MAP3K3), human, residues 1–124 (N-terminal helix and PB1 domain); GST-pCDF vector; also called GST–MEKK3^NPB1: 1–124
